B1: Hairpin Ribozyme (parent)
chain: GUCCUCUUUCACGUGCGCGUGAAAGAGAGAAGUGAACCAGAGAAACACACGUUGUGGUAUAUUACCUGGUA

Variants of B1 are the subject of the data set. As to the kind of experiment: self-cleavage, relative activity (ratio to wild type); higher = more cleavage; co-transcriptional.
As for U7C A49G, the self-cleavage amounted to 0.478. As for C6A C48A, the self-cleavage is 0.084. Turning to C6A C48G, the self-cleavage is 0.121. Turning to C6A U70C, the self-cleavage was 0.618. Take C6A U70A: the self-cleavage turned out to be 0.598. Regarding U7A G34A, the self-cleavage was found to be 1.39. On to U5G U7A, for which the self-cleavage turned out to be 0.2.

Take C6G C50U: the self-cleavage came to 0.265. In the case of C6G U53A, the self-cleavage was 0.585. In the case of C6G U53C it was 0.329; in that of C6U A23U, 0.615; in that of C6U A23C, 0.608. C6A A28C: the self-cleavage came out at 0.233. The same measure for C6A A11G: 0.635. With U7A C65G, the self-cleavage was 0.284. As to C6G U62G, the self-cleavage worked out at 0.159.

Turning to C6G U62A, the self-cleavage was found to be 0.0667. For U7A G17C, the self-cleavage is 0.791.

For the variant C6G G25C, the self-cleavage is 0.744.

As to U7A C10A, the self-cleavage was found to be 0.736. In the case of U7A C10U, the self-cleavage worked out at 0.799. For the variant C6G A44C, the self-cleavage stood at 0.17. Consider C6G A44U, for which the self-cleavage was found to be 0.148. Regarding C6G A44G, the self-cleavage was 0.134. Turning to C6U A71C, the self-cleavage came to 1.05. C6G G54A: the self-cleavage was 0.28. The same measure for C6G G54U: 0.267; for U7A A61G: 0.186. Take U7A A61U: the self-cleavage was determined as 0.167. Take C6G C46G: the self-cleavage came out at 0.124.

As for C6A G25C, the self-cleavage turned out to be 0.64. As for C6A G25U, the self-cleavage worked out at 0.763. On to U7C C10G, for which the self-cleavage was found to be 0.597.

Take U7A U8A: the self-cleavage was 1.14. Regarding C6U G15U, the self-cleavage came out at 0.814.

With U7A U33A, the self-cleavage was 0.218. The same measure for C6U A26U: 0.414; for U7A G40A: 0.313; for U5G G25C: 0.214. U7A A24U: the self-cleavage amounted to 1.15. Take U5G G17A: the self-cleavage is 0.362. Regarding U5G G17U, the self-cleavage was determined as 0.177. As to C6U U63G, the self-cleavage came to 0.119. Turning to C6U U63C, the self-cleavage was found to be 0.167.

As to U7A G42A, the self-cleavage was 0.166. In the case of U7C A24U, the self-cleavage was 0.707. Turning to U7C A24C, the self-cleavage came out at 1.04. C6A U52G: the self-cleavage came to 0.547. Turning to U7C A30U, the self-cleavage came out at 0.257. On to U7C A30C, for which the self-cleavage was determined as 0.121.

Turning to C6U A61C, the self-cleavage was determined as 0.296. With U5G C66U, the self-cleavage amounted to 0.223. In the case of C6A G69A, the self-cleavage was determined as 0.23.

In the case of U7A G57A, the self-cleavage turned out to be 0.128. Turning to U7A G57C, the self-cleavage stood at 0.151. U7A A43U: the self-cleavage was determined as 0.216. The same measure for C6G G29U: 0.0829; for C6A A64U: 0.163; for C6A A64C: 0.148.

U7A U20A: the self-cleavage was 0.723.

With U7A U20C, the self-cleavage was 0.774. In the case of U7A G25A, the self-cleavage came out at 0.249.

Take U7A G25U: the self-cleavage was 0.229. C6U C16U: the self-cleavage stood at 0.971. C6U C16G: the self-cleavage came to 0.65. For C6A U14C, the self-cleavage turned out to be 0.579.

As for C6U G42A, the self-cleavage was determined as 0.275.

On to C6G C10A, for which the self-cleavage was found to be 0.354.

Consider C6G G34C, for which the self-cleavage came out at 1.03. In the case of C6A U8C it was 0.344. Consider C6G U33C, for which the self-cleavage stood at 0.206. As to C6G U33G, the self-cleavage is 0.0659. U7A G29C: the self-cleavage was determined as 0.149.

Take U7C C66G: the self-cleavage was 0.0988. As to U7C C66A, the self-cleavage turned out to be 0.217. As for U7C A36U, the self-cleavage turned out to be 0.466. In the case of U7C A36G it was 0.925; in that of C6A A39C, 0.436. For U7A U60C, the self-cleavage worked out at 0.923. As for U7A U60G, the self-cleavage is 0.496. In the case of C6A G27U it was 0.121.

As for C6A G27A, the self-cleavage turned out to be 0.126. C6A G29C: the self-cleavage was 0.123. For C6A C12A, the self-cleavage is 0.52.

As to C6G U63A, the self-cleavage came to 0.125.

C6G U63G: the self-cleavage came to 0.19. In the case of C6G U63C it was 0.142; in that of U7C C12G, 0.758; in that of C6G G68C, 0.131. With C6G G68A, the self-cleavage came to 0.132. For C6G G68U, the self-cleavage came out at 0.156. Take U5G U58A: the self-cleavage was determined as 0.272. Consider U5G U58C, for which the self-cleavage was 0.25. Turning to C6U C38A, the self-cleavage was determined as 0.0889.

Take U7A A23G: the self-cleavage was 0.866. In the case of C6U G17A it was 0.917. As for C6U G17C, the self-cleavage turned out to be 0.434. As to U7A G13U, the self-cleavage was found to be 0.774. In the case of U7A G13C it was 0.778; in that of C6G A41C, 0.552; in that of C6U A43G, 0.151.

As to C6U A43C, the self-cleavage came to 0.0901. As to C6U U53C, the self-cleavage was found to be 0.704. For C6U U53G, the self-cleavage is 0.801.

For the variant C6U C12U, the self-cleavage came to 0.696. On to U7A G69U, for which the self-cleavage came out at 0.271. Turning to C6U A28U, the self-cleavage came to 0.495.

As for C6G A61G, the self-cleavage was 0.147. In the case of C6G A31G it was 0.355; in that of U7C A61G, 0.164.

For the variant U7C A61U, the self-cleavage worked out at 0.175. In the case of C6G G57A it was 0.11. In the case of U7C A23G, the self-cleavage worked out at 0.6. U7C A23U: the self-cleavage is 0.694.

With C6A G21U, the self-cleavage was determined as 0.542. In the case of C6A G21A, the self-cleavage worked out at 0.6. For C6A C18A, the self-cleavage was found to be 0.649.

Consider C6A C18U, for which the self-cleavage came to 0.708. Consider C6A C18G, for which the self-cleavage worked out at 0.43. Consider U7A A49C, for which the self-cleavage stood at 0.18. For the variant U7A U52G, the self-cleavage was 0.733. Take C6G A28C: the self-cleavage was 0.145.

For the variant C6G A28G, the self-cleavage turned out to be 0.605. The same measure for C6G A28U: 0.22.

In the case of C6A G15C, the self-cleavage is 0.586. Regarding C6A G15U, the self-cleavage turned out to be 0.582. Take C6A G17C: the self-cleavage came out at 0.424. As for C6G G19U, the self-cleavage came out at 0.201. For the variant U7C G13A, the self-cleavage worked out at 0.615. In the case of U7C G13U it was 0.788; in that of U7A U63A, 0.181; in that of C6A C46A, 0.119. In the case of C6A C46U it was 0.171. As to C6A G19C, the self-cleavage worked out at 0.55. The same measure for C6G U52G: 0.583.

For the variant C6A U58A, the self-cleavage was found to be 0.457.

C6U A24G: the self-cleavage was found to be 0.353. For U7A G54C, the self-cleavage was found to be 0.349. In the case of U5G U53A it was 0.455. Take U5G U53G: the self-cleavage is 0.179. For C6A A23C, the self-cleavage came out at 0.52. On to C6A A23U, for which the self-cleavage came to 0.503. Take C6G A22U: the self-cleavage turned out to be 0.377. With C6G A22G, the self-cleavage was found to be 0.52. With C6U G25C, the self-cleavage stood at 0.773. In the case of C6G A35G it was 0.414; in that of C6U C66A, 0.11; in that of C6U C66G, 0.194. As for C6U C65U, the self-cleavage came out at 0.323. U7A G27A: the self-cleavage amounted to 0.27. The same measure for U7A C46A: 0.0948; for U5G G15U: 0.431.

As for U5G G15C, the self-cleavage is 0.249. As to C6G G15A, the self-cleavage turned out to be 0.475. In the case of C6G A26G it was 0.203; in that of C6G A26U, 0.198; in that of C6U C48U, 0.227. Regarding C6U C48A, the self-cleavage is 0.209. The same measure for C6G C65U: 0.221; for C6U C37A: 0.286. Take U7C A35G: the self-cleavage was 0.931. For U7C A35U, the self-cleavage was 0.523. Consider C6U G40U, for which the self-cleavage was 0.166. Turning to C6A C38A, the self-cleavage worked out at 0.141. As to C6G A71U, the self-cleavage turned out to be 0.409. Consider C6A A41C, for which the self-cleavage is 0.873.

Turning to C6A A41U, the self-cleavage came to 0.919.
